experiment: yeast display, Sf9 membrane polyspecificity reagent, FACS + sequencing; frameworks hold sequencing errors
Method in brief: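 Sorting gates, low and high (top ~1%), were placed on anti-HA fluorescence to track expression and on streptavidin fluorescence to track reagent binding. A clone's polyreactivity label is taken from the gate it came out of. The reagent was 10% biotinylated, detergent-solubilized Sf9 membrane, applied for 1 hour at 4 °C to galactose-induced yeast display cells.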

Sequence | polyreactivity (PSR sort gate)
QVQLVESGGGLVQAGGSLRLSCAASGGIFWANAMGWHRQAPRKERELVATIHTIGDGTNYADSVKGRFTISRDNAKNTVYLQMNSLKPEDTAVYYCAAPYYYFAVYYGYIFEYDYWGQGTQVTVSS | low polyreactivity
QVQLVESGGGLVQAGGSLRLSCAASGGIFYHNAMGWYRQAPGKERELVAAISGRGGRTYYADSVKGRFTISRDNAKNTVYLPMNSLKPEDTAVYYCNAVVYSPYRYEYWGQGTQVTVSS | low polyreactivity
QVQLVESGGGLVQAGGSLRLSCAASGGIFYHNAMGWYRQAPGKERELVAAISGRGGRTYYADSVKGRFTISRDNAKNTVYLQMNSLKPEDTAVYYCAAGGQARHDYWGQGTQVTVSS | low polyreactivity
QVQLVESGGGLVQAGGSLRLSCAASGGIFYINAMGWYRQAPGKERELVAAISRDGTITYYADSVKGRFTISRDNAKNTVYLQMNSLKPEDTAVYYCAADASIQSWYSIYDYWGQGTQVTVSS | high polyreactivity
QVQLVESGGGLVQAGGSLRLSCAASGGIFYLYAMGWYRQAPGKERELVASINWRSASTYYADSVKGRFTISRDNAKNTVYFQMNSLKPEDTAVYYCNVQWYGGYDYWGQGTQVTVSS | low polyreactivity
QVQLVESGGGLVQAGGSLRLSCAASGGIFYNYAMGWYIQAPGKERELVAAITYSGVRTNYADSVKGRFTISRDNAKNTVYLQMNSLKPEDTAVYYCNAAVVYVKMDYWGQGTQVTVSS | low polyreactivity
QVQLVESGGGLVQAGGSLRLSCAASGGIFYPNAMGWYRQAPAKERELVAANTSGGSTSYADSVKGRFTISRDNAKDTVYLQMNSLKPEDTAVYYCAASTTAYAYVNYGSWGQGTQVTVSS | low polyreactivity
QVQLVESGGGLVQAGGSLRLSCAASGGIFYSNAMGWYRPAPGKERELVAAISSSGGSTYYADSVKGRFTISRDNAKNTVYLQMNSLKPEDTAVYYCAARPTVRPVVRFGYWGQGTQVTVSS | high polyreactivity
QVQLVESGGGLVQAGGSLRLSCAASGGIFYSNGMGWYRQAPGKERELVAAITGGDITDYADSVKGRFTISRDNAKNTVYLQMNSLKPEDTAVYFCAVESYPPDYGPRFGSWGQGTQVTVSS | low polyreactivity
QVQLVESGGGLVQAGGSLRLSCAASGGIFYTNAMGWYRQAPGKERELVAAISRSGGSTYYADSVKGRFTISRDNAKNTVYLQMNSLKPEDTAVYYCAARVYVYGYSYDYWGQGTQVTVSS | high polyreactivity
QVQLVESGGGLVQAGGSLRLSCAASGGIFYYYAMGWYRQAPGKERELVATISNGGSTYYADSVKGRFTISRDNAKNTVYLQMNSLKPEDTAVYYCAADSSSDQYRYFPFDHWGQGTQVTVSS | high polyreactivity
QVQLVESGGGLVQAGGSLRLSCAASGGIFYYYTMGWYRQAPGKERELVAAINWSGGSTYYADSVKGRFTISRDNAKNTVYLQMNSLKPEDTAVYYCNAVYRHPVTYGYWGQGTQVTVSS | high polyreactivity
QVQLVESGGGLVQAGGSLRLSCAASGGIITYYDMGWYSQAPGKDREFVAAINVSGTRTYYADSVKGRFTISRDNAKNTVYLEMNSLKPEDTAVYYGATRYRVGFFSWYDYWGQGTQVTVSS | high polyreactivity
QVQLVESGGGLVQAGGSLRLSCAASGGILDTYAMGWYRQAPGKERELVAAITSGGNTNYADSVKGRFTISRDNAKNTVYLQMNSLKPEDSAVYYCNVVTWYYVFRPWEYEYWGQGTQVTVSS | low polyreactivity
QVQLVESGGGLVQAGGSLRLSCAASGGILDTYAMGWYRQAPGKERELVAAITSGGNTNYADSVKGRFTISRDNAKNTVYLQMNSLKPEDTAVYYCNVVTWYYVFRPWEYDYWGQGTQVTVSS | low polyreactivity
QVQLVESGGGLVQAGGSLRLSCAASGGILETNAMGWYRQAPGKERELVAAIDFSAGSTYYADSVKGRFTISRDNAKNTVYLQMNSLKPEDTAVYYCATRLGVLYDYWGQGTQVTVSS | low polyreactivity
QVQLVESGGGLVQAGGSLRLSCAASGGILHSYAMGWYRQAPGKERELVAAISGSGGSTYYADSVKGRFTISRDNAKNTVYLQMNSLKPEDTAVYYCNAVHHYPEHIGGGYWGQGTQVTVSS | low polyreactivity
QVQLVESGGGLVQAGGSLRLSCAASGGILSDYAMGWYRQAPGKERELVAAITISGGRTNYADSVKGRFTFSRDNAKNTVYLQMNSLTPEDTAVYYCYKLPWEYDYWGQGTQVTVSS | low polyreactivity
QVQLVESGGGLVQAGGSLRLSCAASGGIVRLYGMGWDRQAPGKEMEFVAAISSGGGRTYYADSVKGRFTLSRDNAKNTVYLQMNSLKPEDTAVYYCNAELNWYYYIHLDYWGQGTQVTVSS | low polyreactivity
QVQLVESGGGLVQAGGSLRLSCAASGGNFESNAMGWYRQAHGKERELVAAISWSGGTTYYADSVKGRFTISRDNAKNTDFLQMNSLKPEDTAVYYCAKVPFSYRSFGYWGQGTQVTVSS | low polyreactivity
QVQLVESGGGLVQAGGSLRLSCAASGGNFKRYAMGWYRQAPGKERELVAAISGRGGSTYYADSVKGRFTISRDYAKNTVYLQMNSLKPEDTAVYYCDAYWRYRTDMDYWGQGTQVTVSS | high polyreactivity

Sequence | polyreactivity (PSR sort gate)
QVQLVESGGGLVQAGGSLRLSCAASGGNFRLYAMGWYSPAPGKERELVAAINGGGSTNYADSVKGRFTISRDNAKNTVYLQMNSLKPEDTAVYYCNAVQYYRFQVYEYDYWGQGTQVTVSS | high polyreactivity
QVQLVESGGGLVQAGGSLRLSCAASGGNFRYYAMGWYRQAPGKERELVAAITRGGRTSYADSVKGRFTISRDNAKNTVYLQMNSLKPEDSAVYYCNAKRPYQEHNSYGYWGQGSQVTVSS | high polyreactivity
QVQLVESGGGLVQAGGSLRLSCAASGGNFSLNAMGWYRQAPGKERELVATISWSGTSTHYADSVKGRFTISRDNAKNTVYLQMNSLKPEDTAVYYCNTRLYGRDYSWYDYWGQGTQVTVSS | high polyreactivity
QVQLVESGGGLVQAGGSLRLSCAASGGNFYYYVMGWYRQAPGKERELVAAITWSGGSTSYADSVKGRFTISRDNAKNTVYLQMNSLKPEDTAVYYCNADSTTQDYDYWGQGTQVSVSS | low polyreactivity
QVQLVESGGGLVQAGGSLRLSCAASGGTCSKYAMGWYRQARGKEREFVAAITVSGGGTYYADSVKGRFTISRDNAKNTVYLQMNSLKTEDTAVYYCAADLAWTASDYWGQGTQVTLSS | low polyreactivity
QVQLVESGGGLVQAGGSLRLSCAASGGTFAEYVMGRYRQAPGKERELVAAIDWSGGSTYYADSVKGRFTISRDNAKNTVYFQMNSLKPEDTALYYCAKGPGYGFYKLMSYDSWGQGTQVTVSS | low polyreactivity
QVQLVESGGGLVQAGGSLRLSCAASGGTFAGYAMGWYRLAPGKERELVAAISWSSGRTYYADSVKGRFTISRDNAKNTVYLQMNSLKPEDTAVYYCNVLRYRGYDYWGQGTQVTVSS | high polyreactivity
QVQLVESGGGLVQAGGSLRLSCAASGGTFAGYAMGWYRQAPGKERELVAAIRWSGGRTYYADSVKGRFTISRDNAKNSVYLQMNSLKPEDTAVYYCAANGHGRVYFEMDYWGQGTQVTVSS | high polyreactivity
QVQLVESGGGLVQAGGSLRLSCAASGGTFARNTMGWYRQAPGKERELVAAITRGGSSTYYADSVKGRFTISRDNAKNTVYLQMNSLKPEDTAVYYCNKSLRWRYPYYGTTGRYDYWGQGTQVTVSS | high polyreactivity
QVQLVESGGGLVQAGGSLRLSCAASGGTFAVNVMGWYRQAPGKERELVAAITSNGGSTYYADSVKGRFTISRDNAKNTVYLQMNSLTPEDTAVYYCAAEGSGWYTGHYYYWGQGTQVTVSS | low polyreactivity
QVQLVESGGGLVQAGGSLRLSCAASGGTFAYYTMGWYRQAPGKERELVAAISSGGRTNYADSVKGRFTISRDNAKNTVYLQMNSLKPEDTAVYYCAAESPLVYYSYPAYYKYYEYEYWGQGTQVTVSS | low polyreactivity
QVQLVESGGGLVQAGGSLRLSCAASGGTFDNYAMGWYRQAHGKERELVAAISWSGDNTYYADSVKGRFTISRDNAKNTVYLQMNSLKPEVTAVYYCAAVYFWYSYDEGYTAYDYWGQGTQVTVSS | low polyreactivity
QVQLVESGGGLVQAGGSLRLSCAASGGTFDVYAMGWYRQAPGKERELVAAISIGGSTYYADSVKGRFTISRDNAKNTVSLQMNSLKPEDTAVYYCAADVNSRYSWRRWYAYDYWGQGTQVTVSS | high polyreactivity
QVQLVESGGGLVQAGGSLRLSCAASGGTFENYPMGWYRQAPGKERELVAAISSGGSTNYADSVKGRFTISRDNAKNTVYLQMNSLKPEDTAVYYCARYRVWGSNGHKLFHYDYWGQGTQVTVSS | low polyreactivity
QVQLVESGGGLVQAGGSLRLSCAASGGTFFVYMGGYRQAPGNERELVADISGSGGGTYYADSVKGRFTISRDNAKNTVYLQMNSLKPEDTAVYYCATDVPTGIIRMYWGQGTQVTVSS | low polyreactivity
QVQLVESGGGLVQAGGSLRLSCAASGGTFGRYAMGWYRQAPGKERELVAAITWRVGSTYADSVKGRFTISRDNAKNTVYLQMNSLKPEDTAVYYCAARRRAPGTKYYYWGQGTQVTVSS | low polyreactivity
QVQLVESGGGLVQAGGSLRLSCAASGGTFGSNAMGWYRQAPGKERELLAAISFSDGITYYADSVKGRFTISRDNAKNTVYLQMNSLKPEDSAVYYCAAELGTSRGGDTMEYWGQGTKVTVSS | high polyreactivity
QVQLVESGGGLVQAGGSLRLSCAASGGTFGVYTMGWYRQAPGKERELVAAISWSGGSTYYADSVKGRFTISRDNAKNTVYLQMNSLKPEDTAVYYCAARLKYGRIRVDHWGQGTQVTVSS | high polyreactivity
QVQLVESGGGLVQAGGSLRLSCAASGGTFIMYAMGWYRQAPGKERELVASITWSGGRTYYADSVKGRFTISRDNSKNTVYLQMNSLKPEDTAVYYCNTPPSYIMDYWGQGTQVTVSS | low polyreactivity
QVQLVESGGGLVQAGGSLRLSCAASGGTFIRYAMGWYRQAPGKEREFVAAISASGGSTYYADSVKGRFTISRDNAKNTVYLQMNSLKPEDTAVYYCAARRTNLPVKFYYWGQGTQVTVSS | high polyreactivity

— the nanobody polyreactivity screen of Harvey et al. (2022)
